Data from patent US20250009852A1, “DEPLETING EGFR AND HER2 OVERCOMES RESISTANCE TO EGFR INHIBITORS IN COLORECTAL CANCER” (Health Research, Inc., priority 2021, published 2025).

Assays:
HB-EGF = assay: Measurement of soluble HB-EGF in tumor tissues by ELISA; type: in vivo, mouse; details: HCT116 and HT29 tumors; aderbasib 60 mg/kg
Procedure: Concentrations of AREG and HB-EGF in tumor tissues were measured using the Human Amphiregulin/AREG ELISA Kit PicoKine and HB-EGF ELISA Kit, following the manufacturer's instruction. Briefly, 100 μl of standard or tumor tissue homogenate (cleared by centrifugation) was added to a microtiter well pre-coated with anti-human AREG or anti-human HB-EGF and incubated for 2 h at RT. After washing the plate with washing buffer, 100 μl of biotinylated anti-human AREG or biotinylated anti-human HB-EGF were added to each well and incubated for 1.5 h at RT. The microtiter wells were washed 3 times with wash buffer and incubated with 100 μl/well of avidin-biotin-peroxidase complex for 40 min at RT. The microtiter wells were washed 5 times with wash buffer and incubated with 90 µl/well color developing reagent for 30 min at RT. After adding 100 μl of stop solution to each well, absorbance at 450 nm was recorded by a Synergy 2 Multi-Mode Microplate Reader.

[1] = test system: HER3, MET, IGF1R, SRC, AKT, ERK, MEK; assay: Western blotting of whole cell lysates: other RTKs and downstream signaling proteins; type: cell-based, human; details: 25 nM, 48 h
Procedure: (§1) To prepare whole cell lysates, cells were washed with PBS twice, mixed with 1× cell lysis buffer from Cell Signaling Technology supplemented with 2 mM PMSF and a protease inhibitor cocktail from Roche Applied Science, placed on ice for 10 min, sonicated at 0-4° C. to enhance cell lysis using a Branson Model 450 sonifier, and finally centrifuged at 13,000 g for 10 min at 4° C., and the supernatant fraction is collected as whole cell lysate. Tumor and samples were mixed with RIPA buffer (25 mM Tris-HCl, PH7.6, 150 mM NaCl, 1% Nonidet P-40, 1% sodium deoxycholate, and 0.1% SDS), which was supplemented with 2 mM PMSF, the protease inhibitor cocktail mentioned above, phosphatase inhibitor cocktail 2 and phosphatase inhibitor cocktail 3 from Sigma-Aldrich at 14.3 μl buffer per mg tissue, and homogenized in a Dounce homogenizer. The homogenates were cleared by centrifugation at 13,000 g for 15 min at 4° C.
(§2) Protein concentrations in all samples were measured using the BCA Assay Kit. For Western blotting, each sample was mixed with 4× loading dye, heated for 5 min at 95° C., and resolved by SDS-PAGE (8-12.5%). Proteins were transferred to polyvinylidene fluoride membrane, probed with specific antibodies, and detected using either Luminata Classico (Millipore) or Luminata Cresendo (Millipore). For IP, cell lysates (0.5 mg protein/sample) were incubated with a desired antibody overnight at 4° C., followed by incubation of 500 μl sample with 30 μl G-Sepharose beads (2 mg/ml) for 1 h at RT. The beads were washed three times with IP buffer, suspended in 2× SDS loading buffer, boiled for 5 min, and analyzed by Western blotting.

HRAS, NRAS, KRAS = assay: Western blotting of whole cell lysates: RAS proteins; type: cell-based, human; details: 48 h
Procedure: as §1
Protein concentrations in all samples were measured using the BCA Assay Kit. […] Proteins were transferred to polyvinylidene fluoride membrane, probed with specific antibodies, and detected using either Luminata Classico (Millipore) or Luminata Cresendo (Millipore). […] The beads were washed three times with IP buffer, suspended in 2× SDS loading buffer, boiled for 5 min, and analyzed by Western blotting.

[2] = test system: EGFR-HER3, EGFR-IGF1R and EGFR-MET heterodimers; assay: Immunoprecipitation and Western blotting of EGFR heterodimers; type: cell-based, human; details: 25 nM, 48 h
Procedure: as §2

SW48 tumors = assay: Subcutaneous SW48 tumors in SCID mice; type: in vivo, mouse; details: sc SW48 tumors; EP 0.5 mg/kg ip daily plus PEPD^G278D 4 mg/kg ip three times weekly, or cetuximab 15 mg/kg ip twice weekly
Procedure: SCID mice (C.B.17 SCID) were bred by the Laboratory Animal Shared Resource at Roswell Park Comprehensive Cancer Center. Male mice at 7-8 weeks of age were used. All mouse experiments were approved by the Institutional Animal Care and Use Committee at Roswell Park Comprehensive Cancer Center under protocol 1022M. We established subcutaneous tumors by inoculating 1×10^6 HCT116 cells, 4×10^6 HT29 cells, or 2×10^6 SW48 cells to the flank of each mouse in 100 μl of serum free medium. Colon patient-derived xenograft (PDX) 14650 was established from a liver metastatic lesion in a patient treated at Roswell Park Comprehensive Cancer Center. Tumor fragments (˜20 mm^3) from donor mice were implanted into the flank of each mouse subcutaneously using a trocar. […] Subcutaneous tumor volume was measured using length ×width^2÷2. Tumor volume was measured three times each week. Orthotopic tumor growth was monitored by bioluminescence weekly. Mice were given D-luciferin (150 mg/kg) by ip and anesthetized with isoflurane, and tumor burden was measured by bioluminescence using the IVIS Spectrum In Vivo Imaging System (PerkinElmer). Drug treatment was started when significant tumor growth was detected. […] The mice were closely monitored for sign of adverse effects and weighed three times each week. […]

Molecule	soluble HB-EGF level in the tumor tissues (HB-EGF)	expression of other signaling proteins (HER3, MET, IGF1R, SRC, AKT, ERK) ([1]; HCT116, HT29 and SW48 cells)	phosphorylation of other signaling proteins (HER3, MET, IGF1R, SRC, AKT, ERK) ([1]; HCT116, HT29 and SW48 cells)	MEK phosphorylation ([1]; HCT116 and HT29 cells)	phosphorylation or expression of HER3, MET, IGF1R, SRC, AKT, and ERK ([1]; SW620 cells that lack EGFR and HER2)	expression of HRAS and NRAS (HRAS, NRAS, KRAS; HCT116, HT29 and SW48 cells, 25 nM)	expression of WT or mutated KRAS (HRAS, NRAS, KRAS; PEPD^G278D 25 nM, cetuximab 275 nM)	EGFR association with HER3, MET or IGF1R [2]	inhibition of tumor growth at the end of treatment (SW48 tumors) [%]
COC(=O)N1CC2(CC2)C[C@H](C(=O)NO)[C@H]1C(=O)N1CC=C(c2ccccc2)CC1 [aderbasib]	marked decrease								
PEPD^G278D: recombinant and enzymatically inactive mutant of human peptidase D (PEPD), with replacement of glycine 278 by aspartic acid (protein, left off: small tags and cut ends) AAATGPSFWLGNETLKVPLALFALNRQRLCERLRKNPAVQAGSIVVLQGGEETQRYCTDTGVLFLQESFFHWAFGVTEPGCYGVIDVDTGKSTLFVPRLPASHATWMGKIHSKEHFKEKYAVDDVQYVDEIASVLTSQKPSVLLTLRGVNTDSGSVCREASFDGISKFEVNNTILHPEIVESRVFKTDMELEVLRYTNKISSEAHREVMKAVKVGMKEYGLESLFEHYCYSRGGMRHSSYTCICGSGENSAVLHYGHAGAPNDRTIQNGDMCLFDMDGEYYSVASDITCSFPRNGKFTADQKAVYEAVLLSSRAVMGAMKPGDWWPDIDRLADRIHLEELAHMGILSGSVDAMVQAHLGAVFMPHGLGHFLGIDVHDVGGYPEGVERIDEPGLRSLRTARHLQPGMVLTVEPGIYFIDHLLDEALADPARASFLNREVLQRFRGFGGVRIEEDVVVIDSGIELLTCVPRTVEEIEACMAGCDKAFTPFSGPK		had no effect on the expression	markedly decreased their phosphorylation	markedly decreased MEK phosphorylation	had no effect	strongly downregulates	neither PEPD^G278D nor cetuximab regulated the expression	disruption of EGFR association	91.5
